# From the RNAGym collection of RNA variant scans (doi:10.1021/acssynbio.7b00057)
# B1: Pistol ribozyme (parent)
# chain: GGGUCGUUGUUCCAUAAUCGCGUGGAUAUGGCACGCAAGUUUCUACCGGGCACCGUAAAUGUCCGACUGGAGCCGUUCGGGCGGCUAUAAACAGACCUCAGGCCCGAAGCGUGGCGGCACCUGCCGCCGGUGGUAAAAAAGAUCGGAAGAGCACACGUCU
# Variants of: B1
# Assay: aptazyme ON/OFF ratio, guanine; higher = stronger switching; co-transcriptional cleavage with and without guanine
row,Variant,aptazyme ON/OFF ratio
1,U7G G9C U10A C12G C13A,1.1
2,U7G G9A U10A U11G C12G,1.13
3,U7G G9A U10A U11G C12A,1.13
4,U7G G9A U10A U11G C12U,1.24
5,U7G G9C U10A C13G,1.07
6,U7G G9C U10A C13A,1.2
7,U7G G9C U10A C13U,1.16
8,U7G G9C U10A U11C C12A C13G,1.23
9,U7G G9C U10A U11C C12A C13A,1.34
10,U7G G9C U10A U11C C12A C13U,1.36
11,U7G G9A U10G C12G C13A,1.1
12,U7G G9A U10G C12G C13G,1.12
13,U7G G9A U10G C12G C13U,1.07
14,U7G G9A U10A U11C C13G,1.08
15,U7G G9A U10A U11C C13A,1.09
16,U7G G9A U10A U11C C13U,1.06
17,U7G G9A U10A U11G,2.05
18,U7G G9A U10A U11A,2.42
19,U7G G9A U10A U11C,1.09
20,U7G G9A U11A C12U C13G,1.17
21,U7G G9A U11A C12U C13U,1.19

row,Variant,aptazyme ON/OFF ratio
1,U7G G9A U11A C12U C13A,1.16
2,U7G G9A U11A C13A,1.14
3,U7G G9A U11A C13U,1.2
4,U7G G9A U11A C13G,1.1
5,U7G G9C U10A U11C C12G,1.27
6,U7G G9C U10A U11C C12A,1.76
7,U7G G9C U10A U11C C12U,1.46
8,U7G G9A U11A C12A C13A,1.18
9,U7G G9A U11A C12A C13G,1.09
10,U7G G9A U11A C12A C13U,1.15
11,U7G G9A U10G U11G C12A,1.1
12,U7G G9A U10G U11G C12G,1.09
13,U7G G9A U10G U11G C12U,1.16
14,U7G G9A U10A C12U,1.31
15,U7G G9A U10A C12A,1.2
16,U7G G9A U10A C12G,1.18
17,U7G G9A U10C C12G,1.38
18,U7G G9A U10C C12U,1.59
19,U7G G9A U10C C12A,1.28
20,U7G G9A U10A C13U,1.28
21,U7G G9A U10A C13G,1.06

row,Variant,aptazyme ON/OFF ratio
1,U7G G9A U10A C13A,1.07
2,U7G G9A U10G C13G,1.13
3,U7G G9A U10G C13A,1.11
4,U7G G9A U10G C13U,1.12
5,U7G G9A U10A C12G C13U,1.25
6,U7G G9A U10A C12G C13G,1.12
7,U7G G9A U10A C12G C13A,1.09
8,U7G G9C C12G,1.91
9,U7G G9C C12A,1.99
10,U7G G9C C12U,1.79
11,U7G G9C U10A C12A C13A,1.2
12,U7G G9C U10A C12A C13U,1.2
13,U7G G9C U10A C12A C13G,1.09
14,U7G G9A U10C,3.35
15,U7G G9A U10A,3.3
16,U7G G9A U10G,1.19
17,U7G G9A U10G U11C C12U C13U,1.09
18,U7G G9A U10G U11C C12U C13A,1.08
19,U7G G9A U10G U11C C12U C13G,1.08
20,U7G G9A U10A U11G C13U,1.14
21,U7G G9A U10A U11G C13A,1.09

row,Variant,aptazyme ON/OFF ratio
1,U7G G9A U10A U11G C13G,1.13
2,U7G G9A U11G C12G C13A,1.07
3,U7G G9A U11G C12G C13G,1.07
4,U7G G9A U11G C12G C13U,1.16
5,U7G G9A U10A U11A C12U C13A,1.12
6,U7G G9A U10A U11A C12U C13G,1.19
7,U7G G9A U10A U11A C12U C13U,1.17
8,U7G G9C,2.85
9,U7G G9A,4.35
10,U7G G9C C12U C13U,1.33
11,U7G G9C C12U C13A,1.3
12,U7G G9C C12U C13G,1.18
13,U7G G9A U11G C12A,1.17
14,U7G G9A U11G C12G,1.17
15,U7G G9A U11G C12U,1.3
16,U7G G9A U10C C13G,1.08
17,U7G G9A U10C C13A,1.11
18,U7G G9A U10C C13U,1.44
19,U7G G9A U10A U11C C12G,1.22
20,U7G G9A U10A U11C C12A,1.24
21,U7G G9A U10A U11C C12U,1.05
